This is an account of results in PMC4954732 (2016).

The term Kd denotes the constant that tells how readily two partners part at equilibrium. A higher Kd goes with lower affinity.

In this test the target is A. fumigatus CCAAT binding complex (CBC) consisting of HapB(230-299), HapC(40-137) and HapE(47-164) (A. fumigatus). The experiment in a line: SPR.

B1: HapX(24-158) (domain or fragment)
chain: SPSPGPGTPGSITSKEWVIPPRPKPGRKPATDTPPTKRKAQNRAAQRAFRERRAARVNELEEQIKKIEDEHEIHIAAFKEQITNLSREVEQCRSEMTWWRDRCHALEKEVSVERSAKEAIVKEFRSSLSDREAVR
Turning to B1, the Kd is 16.2 nM.
